The values below are quoted from earlier work in PMC3113340.

This series deals with IL-1ra (Homo sapiens) (UniProt P18510).
Sequence of UniProt P18510 (P18510 26-177): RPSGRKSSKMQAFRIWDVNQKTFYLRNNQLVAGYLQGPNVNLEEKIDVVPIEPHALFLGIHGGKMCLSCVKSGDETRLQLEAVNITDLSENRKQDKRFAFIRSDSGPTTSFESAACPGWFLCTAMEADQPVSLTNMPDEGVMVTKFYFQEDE

Take “soluble IL-1RI ECD (from UniProt P14778)”: the Kd (in general, the equilibrium constant for the complex coming apart) is 0.014 nM.
